By Kd is commonly meant the equilibrium constant for the complex coming apart. Lower therefore signals a tighter complex.

These results are taken from US20220227873A1 (COUNCIL OF THE QUEENSLAND INSTITUTE OF MEDICAL RESEARCH, published 2022).

Assay [1] has as its target human GAL9 of the human PBMC cultures (human). Description: cell-based or functional assay.
The target is the same in assay [2]. Description: cell-based or functional assay. The source holds these as a separate data set.
Assay [3] concerns the target Human GAL9 protein (Acro Biosystems, Human Gal9 His-tag Cat #LG9-H5244) (human). Description: Octet BLI, IgG1 immobilised on biosensor, GAL9 analyte dilution series, global fit (monovalent affinity). A general note: BLI is a label-free optical method that tracks binding on a fibre tip over time.

Human GAL9 protein (Acro Biosystems, Human Gal9 His-tag Cat #LG9-H5244) (human), sequence (chain, as listed by the source): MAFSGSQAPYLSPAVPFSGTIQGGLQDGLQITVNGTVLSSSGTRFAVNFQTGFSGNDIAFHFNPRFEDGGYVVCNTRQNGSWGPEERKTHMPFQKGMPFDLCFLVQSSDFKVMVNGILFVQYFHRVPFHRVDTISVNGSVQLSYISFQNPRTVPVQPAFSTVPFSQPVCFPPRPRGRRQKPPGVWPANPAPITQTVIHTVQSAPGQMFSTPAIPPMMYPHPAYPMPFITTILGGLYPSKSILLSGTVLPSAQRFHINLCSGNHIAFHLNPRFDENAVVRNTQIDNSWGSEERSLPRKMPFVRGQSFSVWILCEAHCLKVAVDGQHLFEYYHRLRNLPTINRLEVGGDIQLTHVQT

B1: P9-11 (antibody, IgG1, V domains shown)
VH: EVQLVESGGGLVQPGGSLRLSCAASGFTFSSYYIHWVRQAPGKGLEWVAYISPSGGYTYYADSVKGRFTISADTSKNTAYLQMNSLRAEDTAVYYCARGAVLYSSAMDYWGQGTLVTVSS
VL: DIQMTQSPSSLSASVGDRVTITCRASQSVSSAVAWYQQKPGKAPKLLIYSASSLYSGVPSRFSGSRSGTDFTLTISSLQPEDFATYYCQQYYPSPSTFGQGTKVEIKR
notes: Tested as bivalent monospecific native human full-length IgG1; also called ABS clone P9-11
Regarding B1, in assay [1], the “INF-γ 72 hr, Fold change, Average” value stood at 0.68 fold; the “INF-γ 72 hr, Fold change, Donor 19” value stood at 0.99 fold; the “INF-γ 72 hr, Fold change, Donor 25” value is 0.52 fold; the “INF-γ 72 hr, Fold change, Donor 27” value worked out at 0.53 fold. In assay [1], the “INF-γ 72 hr, Fold change, as %” value worked out at 68.2%; the “INF-γ 72 hr, pg/ml, Donor 19 (HCMV-peptide stimulated PBMCs)” value worked out at 5890 pg/mL; the “INF-γ 72 hr, pg/ml, Donor 25 (HCMV-peptide stimulated PBMCs)” value turned out to be 23000 pg/mL; the “INF-γ 72 hr, pg/ml, Donor 27 (HCMV-peptide stimulated PBMCs)” value is 891 pg/mL. In assay [2], the “TNF-α 72 hr, Fold change, Average” value stood at 0.64 fold; the “TNF-α 72 hr, Fold change, Donor 19” value stood at 0.78 fold; the “TNF-α 72 hr, Fold change, Donor 25” value was 0.76 fold; the “TNF-α 72 hr, Fold change, Donor 27” value came out at 0.4 fold. In assay [2], the “TNF-α 72 hr, Fold change, as %” value stood at 64.7%; the “TNF-α 72 hr, pg/ml, Donor 19 (HCMV-peptide stimulated PBMCs)” value was determined as 607 pg/mL; the “TNF-α 72 hr, pg/ml, Donor 25 (HCMV-peptide stimulated PBMCs)” value stood at 982 pg/mL; the “TNF-α 72 hr, pg/ml, Donor 27 (HCMV-peptide stimulated PBMCs)” value was 374 pg/mL. Also, binding in assay [3] was put at a Kd of 6.55 nM.

B2: P9-24 (antibody, IgG1, V domains shown)
VH: EVQLVESGGGLVQPGGSLRLSCAASGFTFSSYFIHWVRQAPGKGLEWVASIYPTSHSTSYADSVKGRFTISADTSKNTAYLQMNSLRAEDTAVYYCARLGYPGVMDYWGQGTLVTVSS
VL: DIQMTQSPSSLSASVGDRVTITCRASQSVSSAVAWYQQKPGKAPKLLIYSASSLYSGVPSRFSGSRSGTDFTLTISSLQPEDFATYYCQQVDSRLATFGQGTKVEIKR
notes: Tested as bivalent monospecific native human full-length IgG1; also called ABS clone P9-24
Take B2: in assay [1], the “INF-γ 72 hr, Fold change, Average” value was 0.8 fold; the “INF-γ 72 hr, Fold change, Donor 25” value was found to be 0.82 fold; the “INF-γ 72 hr, Fold change, Donor 27” value came to 0.78 fold; the “INF-γ 72 hr, Fold change, as %” value turned out to be 87.6%. In assay [1], the “INF-γ 72 hr, pg/ml, Donor 25 (HCMV-peptide stimulated PBMCs)” value was 35700 pg/mL and the “INF-γ 72 hr, pg/ml, Donor 27 (HCMV-peptide stimulated PBMCs)” value was determined as 1260 pg/mL. Further, in assay [2], the “TNF-α 72 hr, Fold change, Average” value turned out to be 0.54 fold; the “TNF-α 72 hr, Fold change, Donor 25” value stood at 0.75 fold; the “TNF-α 72 hr, Fold change, Donor 27” value is 0.32 fold; the “TNF-α 72 hr, Fold change, as %” value is 53.5%. In assay [2], the “TNF-α 72 hr, pg/ml, Donor 25 (HCMV-peptide stimulated PBMCs)” value turned out to be 962 pg/mL and the “TNF-α 72 hr, pg/ml, Donor 27 (HCMV-peptide stimulated PBMCs)” value was 299 pg/mL. In assay [3], this molecule came in with a Kd of 5.41 nM.

B3: P9-34 (antibody, IgG1, V domains shown)
VH: EVQLVESGGGLVQPGGSLRLSCAASGFTFSTYFIHWVRQAPGKGLEWVAYIYPQGGYTYYADSVKGRFTISADTSKNTAYLQMNSLRAEDTAVYYCARQSYPGVFDYWGQGTLVTVSS
VL: DIQMTQSPSSLSASVGDRVTITCRASQSVSSAVAWYQQKPGKAPKLLIYSASSLYSGVPSRFSGSRSGTDFTLTISSLQPEDFATYYCQQWTIALTTFGQGTKVEIKR
For B3, in assay [1], the “INF-γ 72 hr, Fold change, Average” value was found to be 0.88 fold; the “INF-γ 72 hr, Fold change, Donor 25” value was found to be 1.01 fold; the “INF-γ 72 hr, Fold change, Donor 27” value stood at 0.74 fold; the “INF-γ 72 hr, Fold change, as %” value was 87.6%. In assay [1], the “INF-γ 72 hr, pg/ml, Donor 25 (HCMV-peptide stimulated PBMCs)” value was found to be 44400 pg/mL and the “INF-γ 72 hr, pg/ml, Donor 27 (HCMV-peptide stimulated PBMCs)” value is 1050 pg/mL. In assay [2], the “TNF-α 72 hr, Fold change, Average” value was 0.74 fold; the “TNF-α 72 hr, Fold change, Donor 25” value was found to be 0.68 fold; the “TNF-α 72 hr, Fold change, Donor 27” value amounted to 0.79 fold; the “TNF-α 72 hr, Fold change, as %” value is 73.7%. Besides, in assay [2], the “TNF-α 72 hr, pg/ml, Donor 25 (HCMV-peptide stimulated PBMCs)” value came out at 874 pg/mL and the “TNF-α 72 hr, pg/ml, Donor 27 (HCMV-peptide stimulated PBMCs)” value amounted to 596 pg/mL.

B4: P9-25 (antibody, IgG1, V domains shown)
VH: EVQLVESGGGLVQPGGSLRLSCAASGFTFSSYYIHWVRQAPGKGLEWVASIYPYGSYTYYADSVKGRFTISADTSKNTAYLQMNSLRAEDTAVYYCARLGYSSGMDYWGQGTLVTVSS
VL: DIQMTQSPSSLSASVGDRVTITCRASQSVSSAVAWYQQKPGKAPKLLIYSASSLYSGVPSRFSGSRSGTDFTLTISSLQPEDFATYYCQQWAPDLTTFGQGTKVEIKR
notes: Tested as bivalent monospecific native human full-length IgG1; also called ABS clone P9-25
The molecule B4 gave a dissociation constant (Kd) in assay [3] of 3.48 nM.

B5: P9-50 (antibody, IgG1, V domains shown)
VH: EVQLVESGGGLVQPGGSLRLSCAASGFTFSSYVIHWVRQAPGKGLEWVALIYSSGGYTQYADSVKGRFTISADTSKNTAYLQMNSLRAEDTAVYYCARVGTTYPSRYLEALDYWGQGTLVTVSS
VL: DIQMTQSPSSLSASVGDRVTITCRASQSVSSAVAWYQQKPGKAPKLLIYSASSLYSGVPSRFSGSRSGTDFTLTISSLQPEDFATYYCQQFGSSLPTFGQGTKVEIKR
notes: Tested as bivalent monospecific native human full-length IgG1; Heavy chain copied as printed: it ends 'SLSPG' without the last K; also called ABS clone P9-50
B5: the Kd in assay [3] is 1.21 nM.

B6: P9-37 (antibody, IgG1, V domains shown)
VH: EVQLVESGGGLVQPGGSLRLSCAASGFTFWKYGIHWVRQAPGKGLEWVAYIYPAGGITSYADSVKGRFTISADTSKNTAYLQMNSLRAEDTAVYYCARSDYYSGMGMDYWGQGTLVTVSS
VL: DIQMTQSPSSLSASVGDRVTITCRASQSVSSAVAWYQQKPGKAPKLLIYSASSLYSGVPSRFSGSRSGTDFTLTISSLQPEDFATYYCQQYYPSPSTFGQGTKVEIKR
notes: Tested as bivalent monospecific native human full-length IgG1; also called ABS clone P9-37
As to B6, in assay [1], the “INF-γ 72 hr, Fold change, Average” value is 0.55 fold; the “INF-γ 72 hr, Fold change, Donor 19” value amounted to 0.55 fold; the “INF-γ 72 hr, Fold change, as %” value turned out to be 54.6%; the “INF-γ 72 hr, pg/ml, Donor 19 (HCMV-peptide stimulated PBMCs)” value is 3230 pg/mL. Moreover, in assay [2], the “TNF-α 72 hr, Fold change, Average” value is 0.55 fold; the “TNF-α 72 hr, Fold change, Donor 19” value amounted to 0.55 fold; the “TNF-α 72 hr, Fold change, as %” value was 55.2%; the “TNF-α 72 hr, pg/ml, Donor 19 (HCMV-peptide stimulated PBMCs)” value amounted to 429 pg/mL. The affinity in assay [3], expressed as Kd, was 4.54 nM.

B7: P9-57 (antibody, IgG1, V domains shown)
VH: EVQLVESGGGLVQPGGSLRLSCAASGFTFSSYYIHWVRQAPGKGLEWVATIYPSGGYTYYADSVKGRFTISADTSKNTAYLQMNSLRAEDTAVYYCARYSYPGVLDYWGQGTLVTVSS
VL: DIQMTQSPSSLSASVGDRVTITCRASQSVSSAVAWYQQKPGKAPKLLIYSASSLYSGVPSRFSGSRSGTDFTLTISSLQPEDFATYYCQQSSSFLWTFGQGTKVEIKR
notes: Tested as bivalent monospecific native human full-length IgG1; also called ABS clone P9-57
Take B7: in assay [1], the “INF-γ 72 hr, Fold change, Average” value turned out to be 0.83 fold; the “INF-γ 72 hr, Fold change, Donor 19” value came out at 0.83 fold; the “INF-γ 72 hr, Fold change, as %” value was found to be 83.4%; the “INF-γ 72 hr, pg/ml, Donor 19 (HCMV-peptide stimulated PBMCs)” value turned out to be 4940 pg/mL. In assay [2], the “TNF-α 72 hr, Fold change, Average” value stood at 0.54 fold; the “TNF-α 72 hr, Fold change, Donor 19” value turned out to be 0.54 fold; the “TNF-α 72 hr, Fold change, as %” value is 53.7%; the “TNF-α 72 hr, pg/ml, Donor 19 (HCMV-peptide stimulated PBMCs)” value came out at 417 pg/mL. For the same molecule, binding in assay [3] was characterised by a dissociation constant (Kd) of 2.56 nM.
